Sequences and labels used below:
T1: Human TCTP (translationally controlled tumor protein) (human, UniProt P13693 1-172)
T1 construct: also called HRF; Tpt1
T1 sequence: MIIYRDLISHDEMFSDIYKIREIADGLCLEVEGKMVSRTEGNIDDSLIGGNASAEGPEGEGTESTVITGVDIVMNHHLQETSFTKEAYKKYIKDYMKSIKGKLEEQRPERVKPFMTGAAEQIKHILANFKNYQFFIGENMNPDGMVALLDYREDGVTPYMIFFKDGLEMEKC

T2: mouse TCTP (mouse, UniProt P63028 1-172)
T2 sequence (looked up): T1 sequence with M13L, N42A, I67V, I99L, R107K, K130N, Y159F

B1: Ab14 (antibody, V domains shown)
VH: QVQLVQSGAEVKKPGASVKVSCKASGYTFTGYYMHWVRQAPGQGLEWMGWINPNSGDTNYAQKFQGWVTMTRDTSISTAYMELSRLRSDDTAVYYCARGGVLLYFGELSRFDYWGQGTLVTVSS
VL: QSALTQPPSASGSPGQSVAISCTGTSSDVGGYNYVSWYQQHPGKAPQLLIYEVTKRPSGVPDRFSGSKSGNTASLTVSGLQAEDEADYYCASYAGDNNLVFGGGTKLTVL
notes: also called antibody Ab14
B2: Ab15 (antibody, V domains shown)
VH: QVQLVQSGAEVKKPGASVKLSCKAAGYTFTVNAMHWVRQAPGQGLEWMGWINAGTGKTKYSQKFQGRLTITRDTSASTAYMHLSGLRSEDTAVYYCARGRAVAFDPWGQGTLVTVSS
VL: B1 VL with A19T, N33D, G43D, Q47K, L49M, T54N, A91N, D96N
notes: also called antibody Ab15
B3: Ab18 (antibody, V domains shown)
VH: QVQLQQSGPGLVKPSQTLSLTCAISGDSVSSNSAAWNWIRQSPSRGLEWLGRTYYRSKWYNDYAVSVKSRITINPDTSKNQFSLQLNSVTPEDTAVYYCARGGAAVFDYWGQGTLVTVSS
VL: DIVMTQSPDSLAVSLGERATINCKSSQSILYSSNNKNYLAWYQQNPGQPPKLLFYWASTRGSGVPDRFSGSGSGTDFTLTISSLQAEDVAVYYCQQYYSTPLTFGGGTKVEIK
notes: also called antibody Ab18
B4: Ab13 (antibody, V domains shown)
VH: B3 VH
VL: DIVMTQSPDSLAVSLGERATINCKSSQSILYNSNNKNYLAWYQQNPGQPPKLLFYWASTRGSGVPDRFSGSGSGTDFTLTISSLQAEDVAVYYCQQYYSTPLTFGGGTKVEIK
notes: also called antibody Ab13
B5: Ab5 (antibody, V domains shown)
VH: QVQLVQSGAEVKKPGASVKVSCKASGYIFISYAMHWVRQAPGQRLEWMGWINAGNGYTEYSQKFQGRVTITRDTSALTAYMELRSLRSEDTAVYYCARRGYFDWWAFDYWGQGTLVTVSS
VL: EIVLTQSPDFQSVTPKEKVTITCRASQSIGSSLHWYQQKPDQSPKLLIKYASQSFSGVPSRFSGSGSGTDFTLTINSLEAEDAATYYCHQSSSLPQTFGQGTKVEIK
notes: From Beacon screening; also called antibody Ab5
B6: Ab10-1 (antibody, V domains shown)
VH: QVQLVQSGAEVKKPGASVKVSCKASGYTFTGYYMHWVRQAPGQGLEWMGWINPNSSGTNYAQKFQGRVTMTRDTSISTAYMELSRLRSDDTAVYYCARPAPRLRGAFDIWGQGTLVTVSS
VL: QSVVTQPPSVSAAPGQKVTISCSGSSSNIGNKKVSWYQQLPVTAPKLLIYDDNKRPSGIPDRFSGSKSGTSATLGITGLQTGDEADYYCATWDSSLRAVVFGGGTKLTVL
notes: Single-residue CDR mutant of Ab10; also called antibody Ab10-1; mutant of Ab10
B7: Ab10-9 (antibody, V domains shown)
VH: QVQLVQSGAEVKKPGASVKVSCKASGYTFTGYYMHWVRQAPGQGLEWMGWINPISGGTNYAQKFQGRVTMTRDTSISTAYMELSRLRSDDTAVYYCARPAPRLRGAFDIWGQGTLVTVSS
VL: B6 VL
notes: Mutant of Ab10 made to prevent post-translational modification; also called antibody Ab10-9; mutant of Ab10
B8: Ab10-2 (antibody, V domains shown)
VH: not shown
VL: B6 VL
notes: Single-residue CDR mutant of Ab10; also called antibody Ab10-2; mutant of Ab10
B9: Ab10-6 (antibody, V domains shown)
VH: not shown
VL: B6 VL with N31T
notes: Single-residue CDR mutant of Ab10; also called antibody Ab10-6; mutant of Ab10
B10: Ab10-10 (antibody, V domains shown)
VH: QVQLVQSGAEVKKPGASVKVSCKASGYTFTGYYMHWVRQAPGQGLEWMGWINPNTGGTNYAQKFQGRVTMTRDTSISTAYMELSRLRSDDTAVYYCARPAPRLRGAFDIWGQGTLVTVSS
VL: B6 VL
notes: Mutant of Ab10 made to prevent post-translational modification; also called antibody Ab10-10; mutant of Ab10
B11: Ab10-7 (antibody, V domains shown)
VH: not shown
VL: B6 VL with K32F
notes: Single-residue CDR mutant of Ab10; also called antibody Ab10-7; mutant of Ab10
B12: Ab10-4 (antibody, V domains shown)
VH: not shown
VL: B6 VL
notes: Single-residue CDR mutant of Ab10; also called antibody Ab10-4; mutant of Ab10
B13: Ab10-8 (antibody, V domains shown)
VH: not shown
VL: B6 VL with A90V
notes: Single-residue CDR mutant of Ab10; also called antibody Ab10-8; mutant of Ab10
B14: Ab10-5 (antibody, V domains shown)
VH: not shown
VL: B6 VL
notes: Single-residue CDR mutant of Ab10; also called antibody Ab10-5; mutant of Ab10

Numbering of substitutions follows the chain as printed.

For one assay, the target named is T1, Human TCTP (translationally controlled …). Put plainly: ELISA, human TCTP coated at 1 µg/ml, antibody titrated, OD 450 nm. On the procedure:
ELISA was carried out to quantitatively analyze the binding capacity of selected antibodies to antigens. To this end, human TCTP was attached to an ELISA plate at a concentration of 1 μg/ml and then treated with antibodies of various concentrations to check the relative binding capacity. As a result of the measurement, all of antibodies Ab1, Ab2, Ab3, Ab4, Ab5, Ab6, Ab7, Ab8, Ab9, Ab12, Ab13, Ab14, Ab15, Ab17, Ab18, Ab19, Ab20, Ab21, and Ab22 were confirmed to bind well to human TCTP (FIGS. 1a and 1b).
Background: An ELISA detects its analyte on a solid surface through an enzyme-linked reagent.
Take B1: the binding result was “binds”.
Consider B2, for which the binding result was “binds”.
The same measure, in the same setting: under B3 stands “binds”.
Broadly, the EC50 (read off the curve) is the concentration at which the effect is half-maximal. A lower EC50 (read off the curve) goes with greater potency. B4: the concentration giving a half-maximal response (EC50 (read off the curve)) is approximately 10 ng/mL.
As for B5, the binding result is listed as “binds”.

Another assay has the same target. Put plainly: ELISA on human TCTP, binder titrated as scFv (axis [scFv] Log(nM)), OD450 [panel Human TCTP].
Regarding B6, the half-maximal effective concentration (EC50 (read off the curve)) was approximately 8 nM.
Turning to B7, the binding result is reported as “binds”.
On the same count and under the same terms, under B8 stands “binds”.
As to B9, the “EC50 (read off the curve)” value is approximately 1 nM.
Consider B10, for which the binding result is listed as “binds”.
With B11, the “EC50 (read off the curve)” value is approximately 20 nM.
Turning to B12, the binding result is “binds”.
Take B13: the binding result was “binds”.
The same measure, in the same setting: under B14 stands “binds”.

The target of a further assay is T2, mouse TCTP. Put plainly: ELISA on mouse TCTP, binder titrated as scFv (axis [scFv] Log(nM)), OD450 [panel Mouse TCTP].
Consider B6, for which the binding result is “binds”.
Same read-out and setting: under B7 stands “binds”.
Turning to B8, the binding result was “binds”.
As to B9, the “EC50 (read off the curve)” value was approximately 9 nM.
Turning to B10, the binding result is reported as “binds”.
The same measure, in the same setting: under B11 stands “binds”; under B12, “binds”; under B13, “binds”.
For B14, the binding result is “binds”.
